Test results published in PMC7666136 (2020).

B1: eGFP-53BP1 (wild-type TP53-binding protein 1 tagged with enhanced green fluorescent protein) [not stated] / itself (parent complex)
chain: MDPTGSQLDSDFSQQDTPCLIIEDSQPESQVLEDDSGSHFSMLSRHLPNLQTHKENPVLDVVSNPEQTAGEERGDGNSGFNEHLKENKVADPVDSSNLDTCGSISQVIEQLPQPNRTSSVLGMSVESAPAVEEEKGEELEQKEKEKEEDTSGNTTHSLGAEDTASSQLGFGVLELSQSQDVEENTVPYEVDKEQLQSVTTNSGYTRLSDVDANTAIKHEEQSNEDIPIAEQSSKDIPVTAQPSKDVHVVKEQNPPPARSEDMPFSPKASVAAMEAKEQLSAQELMESGLQIQKSPEPEVLSTQEDLFDQSNKTVSSDGCSTPSREEGGCSLASTPATTLHLLQLSGQRSLVQDSLSTNSSDLVAPSPDAFRSTPFIVPSSPTEQEGRQDKPMDTSVLSEEGGEPFQKKLQSGEPVELENPPLLPESTVSPQASTPISQSTPVFPPGSLPIPSQPQFSHDIFIPSPSLEEQSNDGKKDGDMHSSSLTVECSKTSEIEPKNSPEDLGLSLTGDSCKLMLSTSEYSQSPKMESLSSHRIDEDGENTQIEDTEPMSPVLNSKFVPAENDSILMNPAQDGEVQLSQNDDKTKGDDTDTRDDISILATGCKGREETVAEDVCIDLTCDSGSQAVPSPATRSEALSSVLDQEEAMEIKEHHPEEGSSGSEVEEIPETPCESQGEELKEENMESVPLHLSLTETQSQGLCLQKEMPKKECSEAMEVETSVISIDSPQKLAILDQELEHKEQEAWEEATSEDSSVVIVDVKEPSPRVDVSCEPLEGVEKCSDSQSWEDIAPEIEPCAENRLDTKEEKSVEYEGDLKSGTAETEPVEQDSSQPSLPLVRADDPLRLDQELQQPQTQEKTSNSLTEDSKMANAKQLSSDAEAQKLGKPSAHASQSFCESSSETPFHFTLPKEGDIIPPLTGATPPLIGHLKLEPKRHSTPIGISNYPESTIATSDVMSESMVETHDPILGSGKGDSGAAPDVDDKLCLRMKLVSPETEASEESLQFNLEKPATGERKNGSTAVAESVASPQKTMSVLSCICEARQENEARSEDPPTTPIRGNLLHFPSSQGEEEKEKLEGDHTIRQSQQPMKPISPVKDPVSPASQKMVIQGPSSPQGEAMVTDVLEDQKEGRSTNKENPSKALIERPSQNNIGIQTMECSLRVPETVSAATQTIKNVCEQGTSTVDQNFGKQDATVQTERGSGEKPVSAPGDDTESLHSQGEEEFDMPQPPHGHVLHRHMRTIREVRTLVTRVITDVYYVDGTEVERKVTEETEEPIVECQECETEVSPSQTGGSSGDLGDISSFSSKASSLHRTSSGTSLSAMHSSGSSGKGAGPLRGKTSGTEPADFALPSSRGGPGKLSPRKGVSQTGTPVCEEDGDAGLGIRQGGKAPVTPRGRGRRGRPPSRTTGTRETAVPGPLGIEDISPNLSPDDKSFSRVVPRVPDSTRRTDVGAGALRRSDSPEIPFQAAAGPSDGLDASSPGNSFVGLRVVAKWSSNGYFYSGKITRDVGAGKYKLLFDDGYECDVLGKDILLCDPIPLDTEVTALSEDEYFSAGVVKGHRKESGELYYSIEKEGQRKWYKRMAVILSLEQGNRLREQYGLGPYEAVTPLTKAADISLDNLVEGKRKRRSNVSSPATPTASSSSSTTPTRKITESPRASMGVLSGKRKLITSEEERSPAKRGRKSATVKPGAVGAGEFVSPCESGDNTGEPSALEEQRGPLPLNKTLFLGYAFLLTMATTSDKLASRSKLPDGPTGSSEEEEEFLEIPPFNKQYTESQLRAGAGYILEDFNEAQCNTAYQCLLIADQHCRTRKYFLCLASGIPCVSHVWVHDSCHANQLQNYRNYLLPAGYSLEEQRILDWQPRENPFQNLKVLLVSDQQQNFLELWSEILMTGGAASVKQHHSSAHNKDIALGVFDVVVTDPSCPASVLKCAEALQLPVVSQEWVIQCLIVGERIGFKQHPKYKHDYVSH

Variants of: B1
Assay: Number and brightness (NB) analysis of fluorescence fluctuation spectroscopy in live DIvA cells; live DIvA cell nuclei, transient transfection, N = 10 cells, two biological replicates; value is the box median; parent: 0.22; read off a plot
chain 1 Y1258A, chain 1 Y1259A was tested, and the screen value was ~0.06 fraction (pixels).

Variants of: B1
Assay: Number and brightness (NB) analysis of fluorescence fluctuation spectroscopy in live DIvA cells; single representative cell ROI; value is the top of the teal (monomer) segment of the stacked bar, the rest of the bar being dimer (green); parent: 0.79; read off a plot
For chain 1 Y1258A, chain 1 Y1259A, the screen value was ~0.96 fraction (pixels).
